In US20230037815A1 (CULLINAN THERAPEUTICS, published 2023):

Experiments:
mouse serum albumin [1] = biological target: T1, mouse serum albumin (mouse, UniProt P07724 25-608); experiment: Octet HTX (ForteBio), HCAb on AHC sensor, 1:1 fit
T1 construct: also called MSA

human serum albumin = biological target: T2, human serum albumin (human, UniProt P02768 25-609); experiment: Octet HTX (ForteBio), HCAb on AHC sensor, 1:1 fit
T2 construct: also called HSA

cynomolgus serum albumin = cynomolgus serum albumin (cynomolgus, UniProt A2V9Z4 25-608); experiment: Octet HTX (ForteBio), HCAb on AHC sensor, 1:1 fit
protein A = protein A (UniProt P38507 37-327); experiment: Octet HTX (ForteBio), HCAb on AHC sensor, 1:1 fit
mouse serum albumin [2] = biological target: T1, mouse serum albumin; experiment: ratio of the Octet KD for mouse serum albumin to that for human serum albumin

T1 sequence (P07724 25-608 limits assumed): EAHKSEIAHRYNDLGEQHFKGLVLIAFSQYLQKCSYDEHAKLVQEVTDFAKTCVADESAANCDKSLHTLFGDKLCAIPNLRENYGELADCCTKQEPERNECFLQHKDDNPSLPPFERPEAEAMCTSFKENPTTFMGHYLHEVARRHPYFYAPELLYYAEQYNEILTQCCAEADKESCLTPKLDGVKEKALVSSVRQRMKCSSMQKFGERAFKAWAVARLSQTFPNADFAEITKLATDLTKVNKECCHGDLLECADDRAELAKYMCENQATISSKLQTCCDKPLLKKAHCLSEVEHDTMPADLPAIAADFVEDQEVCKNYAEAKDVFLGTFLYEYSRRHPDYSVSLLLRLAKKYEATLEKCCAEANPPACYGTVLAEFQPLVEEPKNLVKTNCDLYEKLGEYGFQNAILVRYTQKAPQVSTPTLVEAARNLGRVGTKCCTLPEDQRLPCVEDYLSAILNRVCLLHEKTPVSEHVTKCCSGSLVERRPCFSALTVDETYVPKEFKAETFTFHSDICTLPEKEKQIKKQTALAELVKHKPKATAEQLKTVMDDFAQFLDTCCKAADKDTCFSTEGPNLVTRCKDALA
cynomolgus serum albumin, sequence (A2V9Z4 25-608 limits assumed): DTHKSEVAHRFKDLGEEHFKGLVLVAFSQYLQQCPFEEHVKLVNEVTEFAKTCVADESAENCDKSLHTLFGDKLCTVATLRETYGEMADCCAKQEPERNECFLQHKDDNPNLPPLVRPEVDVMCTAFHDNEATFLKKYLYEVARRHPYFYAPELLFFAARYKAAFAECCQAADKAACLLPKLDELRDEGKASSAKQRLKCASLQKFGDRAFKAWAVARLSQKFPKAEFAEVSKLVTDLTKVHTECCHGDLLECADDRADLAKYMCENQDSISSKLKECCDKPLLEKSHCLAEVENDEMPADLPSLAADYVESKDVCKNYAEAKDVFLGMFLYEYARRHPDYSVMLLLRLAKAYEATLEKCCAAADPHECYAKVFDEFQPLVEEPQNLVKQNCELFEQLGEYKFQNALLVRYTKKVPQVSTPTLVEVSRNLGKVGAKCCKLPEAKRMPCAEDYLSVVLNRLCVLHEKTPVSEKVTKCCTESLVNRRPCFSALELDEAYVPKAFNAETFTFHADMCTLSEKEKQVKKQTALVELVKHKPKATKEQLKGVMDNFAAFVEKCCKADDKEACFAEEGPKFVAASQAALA

Binder	Kd (mouse serum albumin [1])	koff (mouse serum albumin [1])	Kd (human serum albumin)	koff (human serum albumin)	Kd (cynomolgus serum albumin)	koff (cynomolgus serum albumin)	Kd (protein A)	koff (protein A)	Ratio of MSA-KD to HSA-KD (mouse serum albumin [2])
CNG-HSA-117 (VHH) VHH: KVQLVESGGGLVQPGNSLRLSCAASGFTFSSFGMSWVRQAPGKGLEWVSSISGSGSDTLYADSVKGRFTISRDNSKNTLYLQMNSLRAEDTAVYYCTIGGSLTRSSQGTLVTVSS	44.8 nM	0.00877 s⁻¹	5.56 nM	0.000793 s⁻¹	4.05 nM	0.000608 s⁻¹	1.78 nM	0.0002 s⁻¹	8.07
CNG-HSA-102 (VHH) VHH: KVQLLESGGGLVQPGGSLRLSCAASGFTFSSFGMSWVRQAPGKGLEWVSSISGSGSDTLYADSVRGRFTISRDNSKNTLYLQMNSLRPEDTAVYYCTIGGSLSPSSQGTLVTVSS	41.4 nM	0.00738 s⁻¹	4.89 nM	0.000748 s⁻¹	3.65 nM	0.000568 s⁻¹	1.7 nM	0.0002 s⁻¹	8.46
CNG-HSA-118 (VHH) VHH: KVQLVESGGGLVQPGNSLRLSCAASGFTFSSFGMSWVRQAPGKGLEWVSSISGGGSDTLYADSVRGRFTISRDNSKNTLYLQMNSLRAEDTAVYYCTIGGSLRASSQGTLVTVSS	12 nM	0.00274 s⁻¹	9.36 nM	0.0013 s⁻¹	6.65 nM	0.00102 s⁻¹			1.28
CNG-HSA-107 (VHH) VHH: KVQLLESGGGLVQPGGSLRLSCAASGFTFSSFGMSWVRQAPGKGLEWVSSISGSGSDTLYADSVRGRFTISRDNSKNTLYLQMNSLRAEDTAVYYCSIGGSLIRSSQGTLVTVSS	45.6 nM	0.00851 s⁻¹	16.8 nM	0.00238 s⁻¹	13.3 nM	0.00182 s⁻¹	3.09 nM	0.000333 s⁻¹	2.72
CNG-HSA-101 (VHH) VHH: KVQLVESGGGLVQPGGSLRLSCAASGFTFSSFGMTWVRQAPGKGLEWVSSISGSGSDTLYADSVRGRFTISRDNSKNTLYLQMNSLRAEDTAVYYCTIGGSLSPSSQGTLVTVSS	16.1 nM	0.00341 s⁻¹	5.07 nM	0.000716 s⁻¹	3.58 nM	0.000532 s⁻¹	1.84 nM	0.0002 s⁻¹	3.17
CNG-HSA-119 (VHH) VHH: KVQLVESGGGLVQPGNSLRLSCAASGFTFSSFGMSWVRQAPGKGLEWVSSISGSGSDALYADSAKGRFTISRDNAKTTLYLQMNSLRAEDTAVYYCTIGGSLSPSSQGTLVTVSS	41.1 nM	0.00854 s⁻¹	7.36 nM	0.00109 s⁻¹	5.73 nM	0.000864 s⁻¹			5.59
CNG-HSA-108 (VHH) VHH: KVQLVESGGGLVQPGGSLRLSCAASGFTFGSFGMSWVRQAPGKGLEWVSSISGSGADTLYADSVKGRFTISRDNSKNTLYLQMNSLRAEDTAVYYCTIGGSLRASSQGTLVTVSS	8.06 nM	0.00185 s⁻¹	6.19 nM	0.000958 s⁻¹	5.27 nM	0.000794 s⁻¹	2.94 nM	0.000294 s⁻¹	1.3
CNG-HSA-103 (VHH) VHH: KVQLVESGGGLVQPGGSLRLSCAASGFTFSSFGMTWVRQAPGKGLEWVSSISGSGSDTLYADSVRGRFTISRDNSKNTLYLQMNSLRPEDTAVYYCTIGGSLSPSSQGTLVTVSS	15.1 nM	0.00324 s⁻¹	4.89 nM	0.000742 s⁻¹	3.62 nM	0.000541 s⁻¹	2.02 nM	0.000221 s⁻¹	3.09
CNG-HSA-111 (VHH) VHH: KVQLVESGGGLVQPGGSLRLSCAASGFTFSSFGMSWVRQAPGKGLEWVSSISGSGSDTLYADSVEGRFTISRDNSKNTLYLQMNSLRAEDTAVYYCTIGGSLKQSSQGTLVTVSS	10.2 nM	0.00231 s⁻¹	8.35 nM	0.00117 s⁻¹	6.13 nM	0.000884 s⁻¹	2.84 nM	0.0002 s⁻¹	1.23
CNG-HSA-116 (VHH) VHH: KVQLVESGGGLVQPGGSLRLSCAASGFTFSSFGMSWVRQAPGKGPEWVSSISGSGSDTLYADSVKGRFTISRDNSKNTLYLQMNSLRAEDTAVYYCTIGGSLRASSQGTLVTVSS	4.56 nM	0.00108 s⁻¹	4.65 nM	0.000699 s⁻¹	3.85 nM	0.000597 s⁻¹	1.75 nM	0.0002 s⁻¹	0.98
CNG-HSA-109 (VHH) VHH: KVQLVESGGGLVQPGNSLRLSCAASGFTFGSFGMSWVRQAPGKGPEWVSSISGSGSDTLYADSVKGRFTISRDNSKNTLYLQMNSLRPEDTAVYYCTIGGSLSRSSQGTLVTVSS	11.9 nM	0.00284 s⁻¹	3.5 nM	0.000566 s⁻¹	3.1 nM	0.000503 s⁻¹	1.78 nM	0.0002 s⁻¹	3.4
CNG-HSA-110 (VHH) VHH: KVQLVESGGGLVQPGNSLRLSCAASGFTFSSFGMSWVRQAPGKGLEWVSSISGSGGDTLYADSAKGRFTISRDNSKNTLYLQMNSLRPEDTAVYYCTIGGSLSRSSQGTLVTVSS	38.9 nM	0.00838 s⁻¹	5.7 nM	0.000893 s⁻¹	5.2 nM	0.000759 s⁻¹	3.67 nM	0.000378 s⁻¹	6.82
CNG-HSA-112 (VHH) VHH: KVQLLESGGGLVQPGGSLRLSCAASGFTFPSFGMSWVRQAPGKGLEWVSSISGSGSDTLYADSVKGRFTISRDNAKTTLYLQMNSLRPEDTAVYYCTIGGSVSKSSRGTLVTVSS	66.7 nM	0.013 s⁻¹	8.45 nM	0.00136 s⁻¹	7.43 nM	0.00115 s⁻¹	3.44 nM	0.000375 s⁻¹	7.9
CNG-HSA-113 (VHH) VHH: GVQLLESGGGLVQPGGSLRLSCAASGFTFSSFGMSWVRQAPGKGLEWVSSISGTGSDTLYADSVKGRFTISRDNSKNTLYLQMNSLRPEDTAVYYCTIGGSLRYSSQGTLVTVSS	52 nM	0.0101 s⁻¹	15.4 nM	0.00214 s⁻¹	12.1 nM	0.0017 s⁻¹	1.7 nM	0.0002 s⁻¹	3.38
CNG-HSA-104 (VHH) VHH: KVQLLESGGGLVQPGGSLRLSCAASGFTFHSFGMSWVRQAPGKGLEWVSSISGSGSDTLYADSVKGRFTISRDNSKNTLYLQMNSLRPEDTAVYYCTIGGSLSRSSQGTLVTVSS	50.6 nM	0.0105 s⁻¹	7.71 nM	0.00112 s⁻¹	6.1 nM	0.000874 s⁻¹	1.7 nM	0.0002 s⁻¹	6.57
CNG-HSA-120 (VHH) VHH: KVQLVESGGGLVQPGGSLRLSCAASGFTFSSFGMSWVRQAPGKGPEWVSSISGSGSDTLYADSVKGRFTISRDNSKNTLYLQMNSLRPEDTAVYYCTIGGSLKQSSQGTLVTVSS	4.32 nM	0.00107 s⁻¹	3.15 nM	0.000507 s⁻¹	2.6 nM	0.000422 s⁻¹			1.37
CNG-HSA-105 (VHH) VHH: EVQLLESGGGLVQPGGSLRLSCAASGFVFSSFGMSWVRQAPGKGLEWVSSISGSGSDTLYADSVKGRFTISRDNSKNTLYLQMNSLRPEDTAVYYCTIGGSLSRSSQGTLVTVSS	154 nM	0.0206 s⁻¹	15.2 nM	0.002 s⁻¹	12.7 nM	0.00163 s⁻¹	2.76 nM	0.000297 s⁻¹	10.1
